{"source": "paper doi:10.1101/715409", "about": "(bioRxiv, 2019)", "binders": {"B1": {"name": "6xHis Bud6_(1-141) (domain or fragment)", "chain": "MKMAVDDPTYGTPKIKRTASSSSSIETTVTKLLMSTKHLLQVLTQWSKGTTSGRLVSDAYVQLGNDFKVVSKFFMHAKVDMSDVGDVPMALRRVLEVTLREPPSDETLNKHLPKIREIIVTLLDKLKVKQAILKNMQQEHR"}, "B2": {"name": "GST fusion to Boi_(77-178) (domain or fragment)", "chain": "IEKPENLHKSPTQESGNSGVKYGNLNDSASNIGKVSSHQQENRYTSLKSTMSDIDKALEELRSGSVEQEVSKSPTRVPEVSTPQLQDEQTLIQEKTRNEENT"}}, "key": {"[1]": {"molecular_target": "T1, GST fusion to Boi1 (1-203) (Saccharomyces cerevisiae, UniProt P38041 1-203)", "T1 sequence": "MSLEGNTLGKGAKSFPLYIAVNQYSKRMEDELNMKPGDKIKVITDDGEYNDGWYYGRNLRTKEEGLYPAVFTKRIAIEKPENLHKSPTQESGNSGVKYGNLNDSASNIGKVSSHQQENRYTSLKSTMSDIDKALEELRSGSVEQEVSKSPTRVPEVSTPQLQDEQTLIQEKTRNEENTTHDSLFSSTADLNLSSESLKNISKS", "test": "pull-down"}, "6xHis Bud6_(1-141)": {"molecular_target": "B1", "test": "pull-down"}}, "data": [{"binder": "B1", "values": [{"measurement": "binding result", "setting": "[1]", "result": "binds"}]}, {"binder": "B2", "values": [{"measurement": "binding result", "setting": "6xHis Bud6_(1-141)", "result": "binds"}]}]}
